The source of these data is the RNAGym collection of RNA variant scans (doi:10.1093/molbev/msab373).

B1: Azoarcus group I ribozyme (parent)
chain: GUGCCUUGCGCCGGGAAACCACGCAAGGGAUGGUGUCAAAUUCGGCGAAACCUAAGCGCCCGCCCGGGCGUAUGGCAACGCCGAGCCAAGCUUCGGCGCCUGCGCCGAUGAAGGUGUAGAGACUAGACGGCACCCACCUAAGGCAAACGCUAUGGUGAAGGCAUAGUCCAGGGAGUGGCGAAAGUCACACAAACCGG

In the series the parent is B1. The experiment in a line: reverse-splicing fitness (ratio to wild type); higher = more active; in vitro selection; Mg2+ level not given. The essentials:
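An in vitro group I ribozyme library with randomized positions was T7-transcribed and gel-purified. In triplicate, 10 pmol RNA in EPPS pH 7.5 was reacted with 50 pmoles of a 30-nt RNA substrate for 1 h at 37 °C across several added MgCl2 levels (1–48 mM), then stopped with EDTA. Products were reverse transcribed from a substrate-complementary primer, PCR-amplified and sequenced (HiSeq 4000). Fitness is a variant's read proportion after selection over that before, normalised to wild type.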
Consider C82G A111G A120G A145U C150A U176C, for which the reverse-splicing fitness came out at 0.0191. With C82G A111G A120G A145U C150A U176A, the reverse-splicing fitness was found to be 0.014.

For the variant C82G A111G A120G A145U C169A U176A, the reverse-splicing fitness turned out to be 0.0151. For C82G A111G A120G A145U C169A U176G, the reverse-splicing fitness came to 0.00446. C82G A111G A120G A145U C169A U176C: the reverse-splicing fitness worked out at 0.0152. In the case of C82G A111G A120G C150U C169G U176G, the reverse-splicing fitness was found to be 0.00549. As for C82G A111G A120G C150U C169G U176C, the reverse-splicing fitness was determined as 0.0206.

Turning to C82G A111G A120G C150U C169G U176A, the reverse-splicing fitness was 0.0182.

Take C82G A111G A120G A145U C169A: the reverse-splicing fitness is 0.0118. With C82G A111G A120G A145U C169U, the reverse-splicing fitness is 0.012. Consider C82G A111G A120G A145U C169G, for which the reverse-splicing fitness was 0.0203. Consider C82G A111G A120G C150G, for which the reverse-splicing fitness stood at 0.00784.

On to C82G A111G A120G C150U, for which the reverse-splicing fitness worked out at 0.0156. With C82G A111G A120G C150A the figure was 0.0101. Under C82G A111G A120U A145G C150U C169U U176G stands 0.00229; under C82G A111G A120U A145G C150U C169U U176A, 0.00467; under C82G A111G A120U A145G C150U C169U U176C, 0.00574.

As to C82G A111G A120G C150U C169A, the reverse-splicing fitness amounted to 0.0118. Turning to C82G A111G A120G C150U C169G, the reverse-splicing fitness turned out to be 0.0154.

Regarding C82G A111G A120G C150U C169U, the reverse-splicing fitness was determined as 0.0114. Consider C82G A111G A120U A145C C150U C169U, for which the reverse-splicing fitness is 0.00328. Consider C82G A111G A120U A145C C150U C169A, for which the reverse-splicing fitness is 0.00231. With C82G A111G A120U A145C C150U C169G, the reverse-splicing fitness worked out at 0.00281. As for C82G A111G A120G A145U C150U C169G U176G, the reverse-splicing fitness came out at 0.00518.

Take C82G A111G A120G A145U C150U C169G U176C: the reverse-splicing fitness was found to be 0.0179. Under C82G A111G A120G A145U C150U C169G U176A stands 0.0161. For C82G A111G A120G A145G C150U C169G U176G, the reverse-splicing fitness came out at 0.00532. Consider C82G A111G A120G A145G C150U C169G U176C, for which the reverse-splicing fitness was 0.0201. Consider C82G A111G A120G A145G C150U C169G U176A, for which the reverse-splicing fitness stood at 0.0139. With C82G A111G A120U A145G C150A U176C, the reverse-splicing fitness is 0.00919. With C82G A111G A120U A145G C150A U176A, the reverse-splicing fitness was determined as 0.00897. Take C82G A111G A120U A145G C150A U176G: the reverse-splicing fitness stood at 0.00391. Under C82G A111G A120U A145C U176C stands 0.0205; under C82G A111G A120U A145C U176A, 0.0131; under C82G A111G A120U A145C U176G, 0.0054. On to C82G A111G A120G A145C C150U U176G, for which the reverse-splicing fitness turned out to be 0.00599. With C82G A111G A120G A145C C150U U176C, the reverse-splicing fitness stood at 0.0149. Regarding C82G A111G A120G A145G C150A C169G U176G, the reverse-splicing fitness stood at 0.00618. With C82G A111G A120G A145G C150A C169G U176C the figure was 0.0272. Under C82G A111G A120G A145G C150A C169G U176A stands 0.0177. With C82G A111G A120G A145G C169A U176C the figure was 0.0235; with C82G A111G A120G A145G C169A U176A, 0.0166; with C82G A111G A120G A145G C169A U176G, 0.00443. C82G A111G A120U A145C C169G: the reverse-splicing fitness was determined as 0.00347. As to C82G A111G A120U A145C C169A, the reverse-splicing fitness came out at 0.00211. Regarding C82G A111G A120U A145C C169U, the reverse-splicing fitness turned out to be 0.00478.

For C82G A111G A120U A145C C150G C169A U176G, the reverse-splicing fitness was found to be 0.00183.

As to C82G A111G A120U A145C C150G C169A U176C, the reverse-splicing fitness stood at 0.00236. Under C82G A111G A120U A145C C150G C169A U176A stands 0.00237; under C82G A111G A120U A145C C150G C169G U176G, 0.00196; under C82G A111G A120U A145C C150G C169G U176A, 0.00278. Turning to C82G A111G A120U A145C C150G C169G U176C, the reverse-splicing fitness worked out at 0.00228.

On to C82G A111G A120U A145G C150U U176C, for which the reverse-splicing fitness was determined as 0.0196. Turning to C82G A111G A120U A145G C150U U176G, the reverse-splicing fitness amounted to 0.00429.

In the case of C82G A111G A120U A145G C150U U176A, the reverse-splicing fitness stood at 0.0125. Regarding C82G A111G A120G C150G C169U, the reverse-splicing fitness is 0.0094. As to C82G A111G A120G C150G C169A, the reverse-splicing fitness stood at 0.00983.

Regarding C82G A111G A120G C150G C169G, the reverse-splicing fitness worked out at 0.00788. Consider C82G A111G A120U A145G, for which the reverse-splicing fitness was found to be 0.0663. In the case of C82G A111G A120U A145C, the reverse-splicing fitness worked out at 0.0668. In the case of C82G A111G A120U A145G C169U U176C, the reverse-splicing fitness amounted to 0.00485. On to C82G A111G A120U A145G C169U U176G, for which the reverse-splicing fitness was 0.00164. For C82G A111G A120U A145G C169U U176A, the reverse-splicing fitness amounted to 0.00415.

With C82G A111G A120G C150U U176C, the reverse-splicing fitness stood at 0.0211. Regarding C82G A111G A120G C150U U176G, the reverse-splicing fitness stood at 0.00986.

With C82G A111G A120G C150U U176A, the reverse-splicing fitness is 0.012.

On to C82G A111G A120G A145U C150G C169A, for which the reverse-splicing fitness was determined as 0.01. As to C82G A111G A120G A145U C150G C169U, the reverse-splicing fitness came to 0.00943. Turning to C82G A111G A120G A145U C150G C169G, the reverse-splicing fitness was 0.00827. With C82G A111G A120G A145G C169U the figure was 0.0134; with C82G A111G A120G A145G C169A, 0.0141.

For C82G A111G A120G A145G C169G, the reverse-splicing fitness is 0.0197. Under C82G A111G A120G C150U C169U U176C stands 0.0174; under C82G A111G A120G C150U C169U U176A, 0.0189; under C82G A111G A120G C150U C169U U176G, 0.00864. With C82G A111G A120G A145G C150U C169A the figure was 0.0144. With C82G A111G A120G A145G C150U C169G the figure was 0.0181. Consider C82G A111G A120G A145G C150U C169U, for which the reverse-splicing fitness was 0.0141. Under C82G A111G A120G A145U C150U C169U stands 0.0114; under C82G A111G A120G A145U C150U C169A, 0.0123; under C82G A111G A120G A145U C150U C169G, 0.0148.

Consider C82G A111G A120G A145C C169U U176G, for which the reverse-splicing fitness came to 0.00427.

With C82G A111G A120G A145C C169U U176C, the reverse-splicing fitness worked out at 0.0166. On to C82G A111G A120G A145C C169U U176A, for which the reverse-splicing fitness was determined as 0.0179.
